{"source": "patent US6420532B1", "about": "“Method of obtaining compositions comprising Y2 specific compounds” (Synaptic Pharmaceutical Corporation, priority 1994, dated 2002)", "key": {"[1]": {"molecular_target": "T1, CG-13 receptors (human Y2 receptor) (Homo sapiens, UniProt P49146)", "T1 construct": "expressed in transfected cells; host or cells: COS-7 (transient, DEAE-dextran)", "T1 sequence (P49146 1-381)": "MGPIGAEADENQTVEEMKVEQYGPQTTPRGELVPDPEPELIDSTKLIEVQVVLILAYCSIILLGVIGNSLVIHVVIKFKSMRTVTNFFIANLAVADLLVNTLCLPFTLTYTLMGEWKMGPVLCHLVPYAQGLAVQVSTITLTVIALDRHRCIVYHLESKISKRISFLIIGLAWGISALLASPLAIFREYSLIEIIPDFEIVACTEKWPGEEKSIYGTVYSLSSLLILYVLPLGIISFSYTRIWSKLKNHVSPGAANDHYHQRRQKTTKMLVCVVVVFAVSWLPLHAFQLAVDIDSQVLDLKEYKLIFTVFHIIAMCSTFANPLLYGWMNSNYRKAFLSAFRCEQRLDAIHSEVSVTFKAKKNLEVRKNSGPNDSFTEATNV", "assay": "Competitive displacement of 125I-PYY, membranes of COS-7 cells transiently expressing CG-13 (human Y2)", "assay_type": "binding", "settings": "100 μM Gpp(NH)p, human Y2 in COS-7"}, "[2]": {"molecular_target": "T2, rat Y2a receptor (Rattus norvegicus, UniProt Q9ERC0)", "T2 construct": "expressed in transfected cells; host or cells: COS-7 (transient); 4.0 kb EcoRI genomic fragment of rs5a in EXJ.RH", "T2 sequence (Q9ERC0 1-381)": "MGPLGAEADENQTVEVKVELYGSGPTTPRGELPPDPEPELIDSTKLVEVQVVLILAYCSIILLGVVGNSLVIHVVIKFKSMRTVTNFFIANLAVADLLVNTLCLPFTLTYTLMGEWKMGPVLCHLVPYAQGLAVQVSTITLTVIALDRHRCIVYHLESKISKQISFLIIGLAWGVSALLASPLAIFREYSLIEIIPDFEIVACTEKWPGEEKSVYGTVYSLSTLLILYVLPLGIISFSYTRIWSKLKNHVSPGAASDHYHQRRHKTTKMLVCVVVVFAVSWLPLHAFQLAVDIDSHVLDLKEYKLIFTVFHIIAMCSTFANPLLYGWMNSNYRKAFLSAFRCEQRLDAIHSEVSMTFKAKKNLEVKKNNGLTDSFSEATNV", "assay": "Competitive displacement of 125I-PYY, membranes of COS-7 cells transiently expressing rat Y2a", "assay_type": "binding", "settings": "100 μM Gpp(NH)p, rat Y2a in COS-7"}, "[3]": {"molecular_target": "T3, human Y2 receptor (Homo sapiens, UniProt P49146)", "T3 sequence (P49146 1-381)": "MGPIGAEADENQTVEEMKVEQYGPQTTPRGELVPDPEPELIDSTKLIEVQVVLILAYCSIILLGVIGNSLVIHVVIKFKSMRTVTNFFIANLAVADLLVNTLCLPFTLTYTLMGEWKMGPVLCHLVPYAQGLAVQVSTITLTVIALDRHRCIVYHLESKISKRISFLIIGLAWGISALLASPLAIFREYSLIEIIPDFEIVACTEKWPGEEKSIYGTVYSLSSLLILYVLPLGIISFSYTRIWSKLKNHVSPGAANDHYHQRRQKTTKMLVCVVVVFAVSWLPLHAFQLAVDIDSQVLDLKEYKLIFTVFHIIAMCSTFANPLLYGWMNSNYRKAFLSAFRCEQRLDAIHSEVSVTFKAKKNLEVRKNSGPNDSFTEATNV", "assay": "125I-PYY binding to membranes from 293 stable clone (293-hY2-10)", "design": "expressed in transfected cells", "settings": "100 μM Gpp(NH)p, 0.08 nM 125I-PYY, 293 cell membranes"}, "[4]": {"molecular_target": "T3, human Y2 receptor", "assay": "125I-PYY binding to membranes from stably transfected NIH-3T3 cells (N-hY2-5)", "design": "expressed in transfected cells", "settings": "100 μM Gpp(NH)p, 0.08 nM 125I-PYY, NIH-3T3 cell membranes", "description": "Two positive clones were identified and isolated for further study (293 clone #10 and NIH-3T3 clone #5). […] The data serve to emphasize that the receptor/G protein interactions for a given receptor clone can vary depending upon the resident G proteins in the host cell line (93). Additional factors such as receptor density and receptor reserve can also play a role (92)."}, "[5]": {"molecular_target": "T3, human Y2 receptor", "assay": "Intracellular calcium mobilization (Fura-2/AM), stably transfected 293 cells", "settings": "pretreatment 100 ng/ml for 24 hours"}, "[6]": {"molecular_target": "T4, human Y1 receptor (human, UniProt P25929 1-384)", "T4 construct": "whole, on cells; transiently expressed in COS-7 cells; membranes used; also called Y1 gene", "T4 sequence (looked up)": "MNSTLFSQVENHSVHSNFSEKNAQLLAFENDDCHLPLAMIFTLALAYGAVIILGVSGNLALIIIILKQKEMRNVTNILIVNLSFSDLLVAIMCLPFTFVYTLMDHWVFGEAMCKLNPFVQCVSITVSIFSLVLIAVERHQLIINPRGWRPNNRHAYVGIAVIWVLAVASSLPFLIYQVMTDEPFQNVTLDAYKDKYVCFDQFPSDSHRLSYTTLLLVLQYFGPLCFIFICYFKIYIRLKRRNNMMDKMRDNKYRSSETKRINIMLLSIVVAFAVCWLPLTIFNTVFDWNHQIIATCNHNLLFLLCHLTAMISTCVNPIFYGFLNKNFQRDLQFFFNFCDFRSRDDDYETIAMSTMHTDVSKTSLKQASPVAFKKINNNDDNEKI", "assay": "125I-PYY displacement, COS-7 membranes, Ki from IC50"}, "[7]": {"molecular_target": "human hippocampal Y2 receptor (clone CG-13) (human) (UniProt P49146)", "assay": "125I-PYY displacement, COS-7 membranes, Ki from IC50"}, "[8]": {"molecular_target": "T5, human Y4 receptor (human, UniProt P50391 1-375)", "T5 construct": "whole, on cells; transiently expressed in COS-7 cells; membranes used", "T5 sequence (P50391 whole entry)": "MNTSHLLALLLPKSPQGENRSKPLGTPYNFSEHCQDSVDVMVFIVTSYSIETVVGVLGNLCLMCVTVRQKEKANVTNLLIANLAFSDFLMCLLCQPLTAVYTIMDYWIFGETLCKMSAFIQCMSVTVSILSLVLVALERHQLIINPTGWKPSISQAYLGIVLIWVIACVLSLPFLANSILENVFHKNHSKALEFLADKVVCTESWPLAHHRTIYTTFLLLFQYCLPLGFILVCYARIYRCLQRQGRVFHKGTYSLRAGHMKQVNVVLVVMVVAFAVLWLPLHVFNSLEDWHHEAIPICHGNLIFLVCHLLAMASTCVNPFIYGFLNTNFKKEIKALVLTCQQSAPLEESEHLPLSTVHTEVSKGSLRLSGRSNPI", "assay": "125I-PYY displacement, COS-7 membranes, Ki from IC50"}, "[9]": {"molecular_target": "human hippocampal Y2 receptor (clone CG-13) (human) (UniProt P49146)", "assay": "125I-PYY displacement, COS-7 membranes, Ki from IC50", "remark": "listed apart in the source"}, "[10]": {"molecular_target": "human hippocampal Y2 receptor (clone CG-13) (human) (UniProt P49146)", "assay": "cell-based or functional assay"}, "[11]": {"molecular_target": "rat Y2a receptor (encoded by rs5a) (rat)", "assay": "125I-PYY displacement, COS-7 membranes, Ki from IC50"}, "[12]": {"tested_on": "Y1 receptor", "assay": "Whole cell 125I-PYY binding, COS-7 cells transfected with the Y1 gene", "design": "species or system human", "settings": "100 fold excess of cold peptide", "method": "DNA from pools of ≈5000 independent clones was transfected into COS-7 cells by a modification of the DEAE-dextran procedure (17). COS-7 cells were grown in Dulbecco's Modified Eagle Medium (DMEM) supplemented with 10% fetal calf serum, 100 U/mL of penicillin, 100 μg/mL of streptomycin, 2 mM L-glutamine (DMEM-C) at 37° C. in 5% CO2. The cells were seeded one day before transfection at a density of 30,000 cells/cm^2 in 6 well plates (Becton Dickinson, Lincoln Park, N.J.). On the next day, cells were washed twice with Phosphate Buffer Saline (PBS), 400 μl of transfection cocktail was added containing 1/10 of the DNA from each pool and DEAE-dextran (500 μg/mL) in PBS. After a 30 min. incubation at 37° C., 1.6 mL of chloroquine (80 μM in DMEM-C) was added and the cells incubated a further 2.5 hours at 37° C. The media was aspirated from each well and 1 mL of 10% DMSO in DMEM-C added. After 2.5 min. incubation at room temperature, the media was aspirated, each well washed once with 1 mL PBS and the cells incubated 24 hours in DMEM-C. […]\nSince both Y1 and Y2 receptor subtypes are expressed in the hippocampus (2), we analyzed the DNA of positive pools by PCR with Y1 specific primers. […]"}, "[13]": {"molecular_target": "T6, human hippocampal Y2 receptor (clone CG-13) (human, UniProt P49146 1-381)", "T6 construct": "381 amino acids; also called CG-13 receptor; human Y2", "T6 sequence": "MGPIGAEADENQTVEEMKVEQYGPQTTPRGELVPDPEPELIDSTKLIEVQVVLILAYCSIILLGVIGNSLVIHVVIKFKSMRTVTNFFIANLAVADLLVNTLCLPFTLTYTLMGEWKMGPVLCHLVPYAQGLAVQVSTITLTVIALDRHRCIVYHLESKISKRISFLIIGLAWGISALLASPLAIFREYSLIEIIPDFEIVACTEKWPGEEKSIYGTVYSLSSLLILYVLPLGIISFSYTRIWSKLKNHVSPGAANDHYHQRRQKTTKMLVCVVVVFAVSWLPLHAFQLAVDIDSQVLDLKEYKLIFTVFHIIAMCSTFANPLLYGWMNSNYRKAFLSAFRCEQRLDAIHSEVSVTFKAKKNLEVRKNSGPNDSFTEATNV", "assay": "125I-PYY displacement, COS-7 membranes, Ki from IC50"}, "[14]": {"molecular_target": "T4, human Y1 receptor", "assay": "125I-PYY displacement, COS-7 membranes, Ki from IC50", "remark": "listed apart in the source"}, "[15]": {"molecular_target": "T6, human hippocampal Y2 receptor (clone …)", "assay": "125I-PYY displacement, COS-7 membranes, Ki from IC50", "remark": "listed apart in the source"}}, "note": "Where two headings read alike, the source gives them in different places. Where no end group is shown, it is not given here.", "data": [{"molecule": "Nc1nc2c(ncn2[C@@H]2O[C@H](COP(=O)(O)OP(=O)(O)NP(=O)(O)O)[C@@H](O)[C@H]2O)c(=O)[nH]1", "note": "[Gpp(NH)p]", "values": [{"measurement": "decrease of specific binding of 125I-PYY", "setting": "[1]", "value": 4, "unit": "%"}, {"measurement": "decrease of specific binding of 125I-PYY", "setting": "[2]", "value": 23, "unit": "%"}, {"measurement": "reduction of specific binding of 125I-PYY", "setting": "[3]", "value": 32, "unit": "%"}, {"measurement": "reduction of specific binding of 125I-PYY", "setting": "[4]", "value": 6, "unit": "%"}]}, {"molecule": "pertussis toxin", "values": [{"measurement": "decrease of the response to 300 nM human PYY", "setting": "[5]", "value": 93, "unit": "%"}]}, {"molecule": "PP, avian (peptide)", "values": [{"measurement": "Ki", "setting": "[6]", "value": 400, "unit": "nM"}, {"measurement": "Ki", "setting": "[7]", "value": "> 1000", "unit": "nM"}, {"measurement": "Ki", "setting": "[8]", "value": 7, "unit": "nM"}]}, {"molecule": "human NPY free acid (from UniProt P01303 29-64) (peptide)", "values": [{"measurement": "Ki", "setting": "[9]", "value": "> 300", "unit": "nM"}, {"measurement": "Ki", "setting": "[7]", "value": "> 1000", "unit": "nM"}]}, {"molecule": "PP, salmon (peptide)", "values": [{"measurement": "EC50, inhibition of forskolin-stimulated cAMP accumulation, stably transfected 293 cells", "setting": "[10]", "value": 0.07, "unit": "nM"}, {"measurement": "Ki", "setting": "[6]", "value": 0.2, "unit": "nM"}, {"measurement": "Ki", "setting": "[11]", "value": 0.17, "unit": "nM"}, {"measurement": "Ki", "setting": "[8]", "value": 3.2, "unit": "nM"}]}, {"molecule": "[Leu^31,Pro^34]NPY: analog of NPY modified at residues 31 and 34, species not stated", "values": [{"measurement": "inhibition of binding of 125I-PYY", "setting": "[12]", "value": "totally inhibited"}]}, {"molecule": "YPSKPDNPGEDAPAEDMARYYSAL-NH2 (peptide, UniProt P01303 29-52, looked up, range 1-24)", "note": "[NPY1-24 amide, human]", "values": [{"measurement": "Ki", "setting": "[13]", "value": "> 1000", "unit": "nM"}]}, {"molecule": "APLEPMYPGDYATHEQRAQYETQLRRYINTLTRPRY-NH2 (peptide, UniProt P06303 30-65, looked up, mature; also called rat PP)", "note": "[PP, rat]", "values": [{"measurement": "Ki", "setting": "[13]", "value": "> 1000", "unit": "nM"}, {"measurement": "Ki", "setting": "[14]", "value": 460, "unit": "nM"}, {"measurement": "Ki", "setting": "[8]", "value": 0.18, "unit": "nM"}, {"measurement": "Ki", "setting": "[15]", "value": "> 1000", "unit": "nM"}]}]}
